# Changes are numbered by the printed parent chain.
# T1: mouse common cytokine receptor γ-chain (IL-2Rγ) (mouse, UniProt P34902 23-263, limits assumed)
# T1 construct: Recombinant mouse IL-2Rγ protein; also called mo IL-2R; mouse IL-2R gamma
# T1 sequence (looked up): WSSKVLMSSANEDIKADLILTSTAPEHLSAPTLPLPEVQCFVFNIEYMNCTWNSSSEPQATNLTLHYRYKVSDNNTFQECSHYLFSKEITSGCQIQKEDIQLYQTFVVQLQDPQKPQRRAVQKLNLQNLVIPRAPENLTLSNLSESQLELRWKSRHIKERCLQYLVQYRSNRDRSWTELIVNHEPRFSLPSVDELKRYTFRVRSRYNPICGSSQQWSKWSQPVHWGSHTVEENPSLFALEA
# T2: human common cytokine receptor γ-chain (IL-2Rγ) (human, UniProt P31785 23-262, limits assumed)
# T2 construct: Recombinant human IL-2Rγ protein, coated (ELISA) or amine-coupled to a CM5 chip (SPR); also called hu IL-2R; CD132
# T2 sequence: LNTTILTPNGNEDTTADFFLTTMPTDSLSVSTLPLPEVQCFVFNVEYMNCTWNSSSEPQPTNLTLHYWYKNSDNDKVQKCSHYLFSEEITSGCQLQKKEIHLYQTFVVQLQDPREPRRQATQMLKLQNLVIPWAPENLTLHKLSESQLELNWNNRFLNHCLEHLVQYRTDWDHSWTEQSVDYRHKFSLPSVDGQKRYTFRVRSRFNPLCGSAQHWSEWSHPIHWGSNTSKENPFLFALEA
# B1: FJ1427_P035MP07D09 (VHH)
# VHH: EVQLVESGGGLVQAGGSLRLSCAASGRTLSRYAMGWFRQAPGKEREFVTANSWGGDTYYADSVQGRFTFSRDNAKNTVYLQMNSLQPEDTAVYYCAAAPTSFATTAYSSSNSYAYWGQGTQVTVSS
# notes: tested as periplasmic extract; also called Clone nr
# B2: FJ1427_P035MP07G02 (VHH)
# VHH: B1 VHH with E1Q
# notes: as for B1
# B3: FJ1427_P035MP07H04 (VHH)
# VHH: B1 VHH with E1Q, T49A, N51M, Y58F, Q64E, K75E, N76I, T77A, S126H
# notes: as for B1
# B4: FJ1427_P035MP07G08 (VHH)
# VHH: B1 VHH with E1Q, K43R, N83S
# notes: as for B1
# B5: FJ1427_P035MP07H05 (VHH)
# VHH: B1 VHH with E1Q, T49A, A60T, Q64E, T77A, E88G, A114S
# notes: as for B1
# B6: FJ1427_P035MP07E05 (VHH)
# VHH: B1 VHH
# notes: as for B1
# B7: FJ1427_P035MP07G04 (VHH)
# VHH: B1 VHH
# notes: as for B1
# B8: FJ1427_P035MP07E02 (VHH)
# VHH: B1 VHH with E1Q, T28A, Y32L, T49V, N51S, G55D, Y58F, Q64K, E88G
# notes: as for B1
# B9: FJ1427_P035MP07E01 (VHH)
# VHH: QVQLQESGGGLVQAGGSLRLSCAASGRTLSRYAMGWFRQAPGKEREFVACDSWGGDTFYADSVEGRFTFSRDNAKNATYLQMNSLQPEDTAVYYCAGAPTSFATTAYSSSNSYTVWGQGTQVTVSL
# notes: as for B1
# B10: FJ1427_P035MP07F04 (VHH)
# VHH: B1 VHH
# notes: tested as periplasmic extract; also called Clone nr; 606
# B11: FJ1427_P035MP07H02 (VHH)
# VHH: B1 VHH with E1Q, T28A, Y32L, T49V, N51S, G55D, Y58F, Q64K, E88G
# notes: tested as periplasmic extract; also called Clone nr; 592
# B12: FJ1427_P035MP07E04 (VHH)
# VHH: B1 VHH with E1Q, G16D, A23E
# notes: tested as periplasmic extract; also called Clone nr; 605
# B13: FJ1427_P035MP07E08 (VHH)
# VHH: B1 VHH with E1Q, T49A, N51D, A60D, Q64E, N73I, T77A
# notes: as for B1
# B14: FJ1427_P035MP07G05 (VHH)
# VHH: B1 VHH with E1Q, T49A, N51D, Q64E, K75N, T77A
# notes: as for B1
# B15: FJ1427_P035MP07H10 (VHH)
# VHH: B1 VHH with T28A, Y32L, T49V, N51S, G55D, Y58F, Q64K, E88G
# notes: tested as periplasmic extract; also called Clone nr; 656
# B16: FJ1427_P035MP07F05 (VHH)
# VHH: B1 VHH with K43R
# notes: as for B1
# B17: FJ1427_P035MP07F06 (VHH)
# VHH: B1 VHH with E1Q, T28A, Y32L, T49V, N51S, G55D, Y58F, Q64K, E88G
# notes: as for B1
# B18: FJ1427_P035MP07G10 (VHH)
# VHH: B9 VHH with Q5V, F47Y, C50I, A77E, T78V, T114R, V115Y, L126S
# notes: tested as periplasmic extract; also called Clone nr; 655
# B19: FJ1427_P035MP07F10 (VHH)
# VHH: B9 VHH
# notes: tested as periplasmic extract; also called Clone nr; 654
# B20: FJ1427_P035MP07H07 (VHH)
# VHH: B1 VHH with E1Q, G16D, T49A, N51T, T57S, Q64E, T77A, Y115N
# notes: as for B1
# B21: FJ1427_P035MP07D10 (VHH)
# VHH: B1 VHH with E1Q, T49A, N51D, A60D, Q64E, N73I, T77A
# notes: as for B1
# B22: FJ1427_P035MP07F07 (VHH)
# VHH: B1 VHH
# notes: tested as periplasmic extract; also called Clone nr; 630
# B23: FJ1427_P035MP07E09 (VHH)
# VHH: B1 VHH with E1Q, V5Q
# notes: as for B1
# B24: FJ1427_P035MP07H01 (VHH)
# VHH: B1 VHH with E1Q, S21F, A24T, K43R, T49A, A50C, N51D, Y58F, Q64K, N73S
# notes: as for B1
# Biological target: T1, mouse common cytokine receptor γ-chain …
# Experiment: P.E. off-rate SPR
# Protocol: (§1) SPR was performed to determine dissociation rates using Biacore 3000 instrument (GE Healthcare). Briefly, human and mouse IL-2R proteins were immobilized on carboxylmethyl dextran sensor chip (CM5) at approximately 2500 RUs using amine coupling in acetate buffer (GE Healthcare). The VHH-containing P.E. were loaded with a flow rate of 30 uL/min and the off-rates were measured over a 120s period.
row,Binder,koff [s⁻¹]
1,B1,0.126
2,B2,0.1
3,B3,0.0823
4,B4,0.105
5,B5,0.118
6,B6,0.12
7,B7,0.112
8,B8,0.0132
9,B9,0.0132
10,B10,0.115
11,B11,0.0123
12,B12,0.103
13,B13,0.13
14,B14,0.191
15,B15,0.0137
16,B16,0.116
17,B17,0.0117
18,B18,0.00682
19,B19,0.0121
20,B20,0.00331
21,B21,0.125
22,B22,0.133
23,B23,0.108
24,B24,0.0274

# Biological target: T2, human common cytokine receptor γ-chain …
# Experiment: P.E. off-rate SPR
# Protocol: as §1
row,Binder,koff [s⁻¹]
1,B1,0.00447
2,B2,0.00365
3,B3,0.00177
4,B4,0.003
5,B5,0.00279
6,B6,0.00372
7,B7,0.00281
8,B8,0.00206
9,B9,0.00156
10,B10,0.00296
11,B11,0.00188
12,B12,0.00259
13,B13,0.00229
14,B14,0.00257
15,B15,0.00236
16,B16,0.00323
17,B17,0.00162
18,B18,0.00122
19,B19,0.00199
20,B20,0.00418
21,B21,0.003
22,B22,0.003
23,B23,0.0033
24,B24,0.00125

# Biological target: T1, mouse common cytokine receptor γ-chain …
# Experiment: P.E. binding ELISA
# Protocol: (§2) In a binding ELISA, human or mouse IL-2Rα, IL-2Rβ and IL-2Rγ proteins were coated directly on maxisorp microtiter plates overnight at 4° C. Free binding sites were blocked using 4% Marvel in PBS for 1 hour. Next, 1:5 dilution of P.E. in 1% Marvel/PBS were added to wells and incubated for 1 hour. […] Binding specificity was determined based on O.D. at 450 nm values compared to negative controls.
row,Binder,PE binding ELISA OD [OD450 nm]
1,B1,0.045
2,B2,0.051
3,B3,0.052
4,B4,0.047
5,B5,0.049
6,B6,0.045
7,B7,0.047
8,B8,0.061
9,B9,0.139
10,B10,0.047
11,B11,0.066
12,B12,0.046
13,B13,0.049
14,B14,0.046
15,B15,0.049
16,B16,0.045
17,B17,0.082
18,B18,0.74
19,B19,0.089
20,B20,0.047
21,B21,0.048
22,B22,0.045
23,B23,0.045
24,B24,0.133

# Biological target: T2, human common cytokine receptor γ-chain …
# Experiment: P.E. binding ELISA
# Protocol: as §2
row,Binder,PE binding ELISA OD [OD450 nm]
1,B1,0.865
2,B2,1.22
3,B3,0.593
4,B4,0.504
5,B5,1.14
6,B6,0.434
7,B7,1.02
8,B8,0.62
9,B9,0.83
10,B10,0.4
11,B11,0.801
12,B12,0.729
13,B13,0.642
14,B14,0.45
15,B15,0.572
16,B16,0.405
17,B17,1.34
18,B18,0.682
19,B19,0.67
20,B20,1.42
21,B21,0.734
22,B22,0.372
23,B23,0.428
24,B24,0.818
